Results from US20120263734A1.

Molecular target: GPCMV gB (glycoprotein B of Guinea Pig CMV strain V545/82) (guinea pig CMV (GPCMV))
Assay: cell-based or functional assay

## ITC88 control antibody
  neutralization of GPCMV V545/82 entry into JH4 cells (highest concentration tested, no effect): > 300 µg/mL
